From patent US20070231333A1, “ANTI-5T4 ANTIBODIES AND USES THEREOF” (Wyeth, priority 2006, published 2007)

Columns and labels:
human 5T4 antigen [1] = biological target: T1, human 5T4 antigen (Homo sapiens, UniProt Q13641); experiment: BIACORE analysis of antibody binding to human 5T4 antigen immobilized on a CM5 chip; settings: chimeric and humanized antibodies, Table 12
T1 sequence (Q13641 32-420): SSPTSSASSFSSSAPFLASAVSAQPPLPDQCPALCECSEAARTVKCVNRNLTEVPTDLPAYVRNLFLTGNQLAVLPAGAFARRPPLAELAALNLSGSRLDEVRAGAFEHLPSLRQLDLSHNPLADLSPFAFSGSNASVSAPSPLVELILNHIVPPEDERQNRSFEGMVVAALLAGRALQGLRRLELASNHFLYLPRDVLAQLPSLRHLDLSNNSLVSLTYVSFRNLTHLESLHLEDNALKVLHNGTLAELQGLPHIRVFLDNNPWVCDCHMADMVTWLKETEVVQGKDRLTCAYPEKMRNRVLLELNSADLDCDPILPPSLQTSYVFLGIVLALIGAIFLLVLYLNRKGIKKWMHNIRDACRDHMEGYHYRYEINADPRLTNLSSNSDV
Method: To assess the binding specificity and affinity of the A1, A2, and A3 antibodies, BIACORE® analysis was performed using human 5T4 antigen immobilized on a CM5 chip. BIACORE® technology utilizes changes in the refractive index at the surface layer upon binding of the antibody to the 5T4 antigen immobilized on the layer. Binding is detected by surface plasmon resonance (SPR) of laser light refracting from the surface. Analysis of the signal kinetics on rate and off rate allows discrimination between non-specific and specific interactions. The H8 anti-5T4 antibody was used as a control. H8 is a hybridoma-generated monoclonal mouse IgG1 antibody described in PCT International Publication No. WO 98/55607 and in Forsberg et al. (1997) J. Biol. Chem. 272(19):[…].
To assess the binding specificity and affinity of the chimeric and humanized H8, A1, A2, and A3 antibodies, BIACORE® analysis was performed using human 5T4 antigen immobilized on a CM5 chip. See Example 2.

[2] = biological target: T2, mouse 5T4 ectodomain/Fc fusion protein (Mus musculus, UniProt Q9Z0L0); experiment: Cross-species reactivity ELISA, 5T4 ectodomain/Fc fusion proteins; type: binding; design: key: +: binding; −: no binding; +/−: partial binding
T2 construct: prepared using mouse 5T4 (amino acids 1-361); human IgG1 Fc; made in house; host or cells: COS-1 cells (transient transfection)
T2 sequence (Q9Z0L0 32-361): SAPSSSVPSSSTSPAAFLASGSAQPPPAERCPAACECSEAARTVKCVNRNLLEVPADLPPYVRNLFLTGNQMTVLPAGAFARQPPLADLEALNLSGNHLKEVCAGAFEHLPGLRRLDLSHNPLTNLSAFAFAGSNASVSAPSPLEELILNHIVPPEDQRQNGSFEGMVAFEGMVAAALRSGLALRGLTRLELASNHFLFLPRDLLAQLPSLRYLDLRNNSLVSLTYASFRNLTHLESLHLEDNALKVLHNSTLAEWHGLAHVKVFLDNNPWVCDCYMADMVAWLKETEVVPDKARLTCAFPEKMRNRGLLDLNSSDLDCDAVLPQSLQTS
Method: (§1) The cross-species reactivity of anti-5T4 antibodies disclosed herein was assayed to determine relevant species for in vivo efficacy studies and toxicology analysis. Correlation of binding activity and relatedness of the different 5T4 ectodomains was also used to further describe the epitope bound by each antibody. Binding assays were performed using 5T4 ectodomains from various species fused to human IgG1 Fc. To assay binding of anti-5T4 antibodies, 5T4 ectodomain/Fc fusion proteins were transiently transfected into COS-1 cells, and ELISA assays were performed. Non-relevant human IgG4 and IgG1 antibodies were used as controls.

[3] = biological target: T3, rat 5T4 ectodomain/Fc fusion protein (Rattus norvegicus, UniProt Q5PQV5); experiment: as above; type: binding; design: key: +: binding; −: no binding; +/−: partial binding
T3 construct: rat 5T4 (amino acids 1-361); human IgG1 Fc; made in house; host or cells: COS-1 cells (transient transfection)
T3 sequence (Q5PQV5 32-361): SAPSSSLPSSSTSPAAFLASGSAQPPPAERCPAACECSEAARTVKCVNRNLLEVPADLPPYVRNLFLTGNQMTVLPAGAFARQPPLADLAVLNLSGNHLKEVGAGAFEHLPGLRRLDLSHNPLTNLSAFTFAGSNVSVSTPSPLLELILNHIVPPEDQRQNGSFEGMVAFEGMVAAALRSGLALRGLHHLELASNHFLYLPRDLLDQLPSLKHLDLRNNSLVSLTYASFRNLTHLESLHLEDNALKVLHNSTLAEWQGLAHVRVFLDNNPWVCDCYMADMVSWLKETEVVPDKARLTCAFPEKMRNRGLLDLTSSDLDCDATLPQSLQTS
Method: as §1

[4] = test system: black-tailed marmoset 5T4 ectodomain/Fc fusion protein; experiment: as above; type: binding; design: key: +: binding; −: no binding; +/−: partial binding
Method: as §1

human 5T4 antigen [5] = biological target: T1, human 5T4 antigen; experiment: BIACORE competition assay: second antibody after saturation with first antibody; type: binding
Method: Epitope mapping of the H8, A1, A2, and A3 antibodies was also performed using BIACORE® using a CM5 chip with bound human 5T4 antigen. The chip was saturated with H8, A1, A2, or A3 antibody, and a first response was measured. The chip was then saturated with a second antibody from among the H8, A1, A2, and A3 antibodies, and a second response was measured. For multiple experiments, the chip was regenerated by dissociation of the bound antibodies in 10 mM glycine, pH 1.5, followed by a buffer wash. The percentages shown are the response units measured upon binding by a second antibody directly to the CM5 chip divided by the response units measured upon binding of the second antibody to a CM5 chip saturated with a first antibody.
The epitopes bound by the H8 and A3 antibodies are sterically close to each other such that the rate of association with antigen is decreased when binding of H8 is assayed in the presence of A3, and vice versa. Similar results were obtained using the chimeric and humanized H8, A1, A2, and A3 antibodies, which were prepared as described in Example 7 herein below.

black-tailed marmoset 5T4 ectodomain/Fc fusion protein, sequence (as listed by the source): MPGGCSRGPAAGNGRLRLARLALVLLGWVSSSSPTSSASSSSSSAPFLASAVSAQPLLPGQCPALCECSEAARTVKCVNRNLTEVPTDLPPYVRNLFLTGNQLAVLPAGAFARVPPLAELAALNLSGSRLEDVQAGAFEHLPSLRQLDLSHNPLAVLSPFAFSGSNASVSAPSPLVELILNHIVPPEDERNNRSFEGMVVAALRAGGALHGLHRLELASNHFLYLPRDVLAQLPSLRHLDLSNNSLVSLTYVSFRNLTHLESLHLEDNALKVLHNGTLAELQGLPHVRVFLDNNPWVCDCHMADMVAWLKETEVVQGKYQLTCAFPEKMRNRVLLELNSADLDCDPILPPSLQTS

KA (1/M) (human 5T4 antigen [1]): ˜5.4 × 10^9 1/M
ka (1/Ms) (human 5T4 antigen [1]): ˜5.4 × 10^4 1/Ms
kd (1/s) (human 5T4 antigen [1]): ˜1.0 × 10^−5 1/s
cross-reactivity (binding class) [2]: −
cross-reactivity (binding class) [3]: −
cross-reactivity (binding class) [4]: −
Percentage of Second Antibody Bound Following Saturation With First Antibody (human 5T4 antigen [5]; first antibody chimeric A1, 19 seconds after injection of second antibody): 82.1%
Percentage of Second Antibody Bound Following Saturation With First Antibody (human 5T4 antigen [5]; first antibody chimeric A1, 37.5 seconds after injection of second antibody): 82.0%
Percentage of Second Antibody Bound Following Saturation With First Antibody (human 5T4 antigen [5]; first antibody chimeric A1, 75 seconds after injection of second antibody): 84.5%
Percentage of Second Antibody Bound Following Saturation With First Antibody (human 5T4 antigen [5]; first antibody chimeric A1, 150 seconds after injection of second antibody): 87.8%
Percentage of Second Antibody Bound Following Saturation With First Antibody (human 5T4 antigen [5]; first antibody chimeric A1, 300 seconds after injection of second antibody): 90.8%
Percentage of Second Antibody Bound Following Saturation With First Antibody (human 5T4 antigen [5]; first antibody chimeric A1, 600 seconds after injection of second antibody): 92.8%
Percentage of Second Antibody Bound Following Saturation With First Antibody (human 5T4 antigen [5]; first antibody chimeric A2, 19 seconds after injection of second antibody): 92.2%
Percentage of Second Antibody Bound Following Saturation With First Antibody (human 5T4 antigen [5]; first antibody chimeric A2, 37.5 seconds after injection of second antibody): 88.6%
Percentage of Second Antibody Bound Following Saturation With First Antibody (human 5T4 antigen [5]; first antibody chimeric A2, 75 seconds after injection of second antibody): 89.5%
Percentage of Second Antibody Bound Following Saturation With First Antibody (human 5T4 antigen [5]; first antibody chimeric A2, 150 seconds after injection of second antibody): 91.5%
Percentage of Second Antibody Bound Following Saturation With First Antibody (human 5T4 antigen [5]; first antibody chimeric A2, 300 seconds after injection of second antibody): 93.4%
Percentage of Second Antibody Bound Following Saturation With First Antibody (human 5T4 antigen [5]; first antibody chimeric A2, 600 seconds after injection of second antibody): 94.6%
B1: chimeric A3: chimeric A3 antibody: murine A3 variable regions, human IgG4 heavy chain and human kappa light chain constant regions (antibody, V domains shown)
VH: EVQLVESGGGLVQPKGSLKLSCAASGFTFNTYAMNWVRQAPGKGLEWVARIRSKSNNYATYYADSVKDRFTISRDDSQSMLYLQMNNLKTEDTAMYCCVRQWDYDVRAMNYWGQGTSVTVSS
VL: DIVMTQSHIFMSTSVGDRVSITCKASQDVDTAVAWYQQKPGQSPKLLIYWASTRLTGVPDRFTGSGSGTDFTLTISNVQSEDLADYFCQQYSSYPYTFGGGTKLEIK
